Source: the supplement of paper PMC9170038

Test system: MS2 coat protein
Test: apparent KD of MS2 coat protein; designed switch direction (-1 OFF switch, 1 ON switch): 1; higher = weaker reporter binding
Outline: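 An oligonucleotide input, 200 uM small-molecule ligand, or no input was present during titration of SNAP-549-labelled MS2 coat protein, which was doubled from 0.7 or 1.5 nM to 3 µM. Designed RNA switches had been transcribed on Illumina chips by stalled E. coli RNA polymerase. Apparent KD per design is the median over clusters of curves fitted to normalised cluster fluorescence.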

[1] = Eterna round: R95, input ligand: FMN 200 uM
[2] = Eterna round: R95, input ligand: microRNA oligo, concentration not stated
[3] = Eterna round: R95, input ligand: none
[4] = input ligand: microRNA oligo, concentration not stated

Sequence	apparent KD of MS2 coat protein [1]	apparent KD of MS2 coat protein [2]	apparent KD of MS2 coat protein [3]	apparent KD of MS2 coat protein (input ligand: FMN 200 uM)	apparent KD of MS2 coat protein [4]	apparent KD of MS2 coat protein (input ligand: none)
GUAAAACAUGAGGAUCACCCAUGUCAACAAAGUCGAGGAUAUGGGCAAAUAAAAUAAGAACCAGAAGGCGAAUAAG [salish99_SS1_r3_009] (puzzle: Same State 1)	44 nM	703 nM	1290 nM			
CGAAGUCGUAGAGGAUAUGGGUGGCCGGAGUCAACAUGAGGAUCACCCAUGUGCUAAUAUGAGAUCCAGAAGGCUGCGAACGGG [Eternabot solution 16] (Eterna round: R96, puzzle: Same State NG 2)				57.1 nM	31.4 nM	430 nM
AUUAUACAUGAGGAUCACCCAUGUCAAUGUAGUCGAGGAUAUGGGCAGCUGUGAGGCGUACUAGAAGGCGAAGAGA [Mat - Same State 1 - Mod of JL - D9] (puzzle: Same State 1)	59.9 nM	192 nM	222 nM			
UUACUCAUGUAAGGAUAUGCAGCCGAAACGGCUGCAGAAGGUACUAUAAUACAUGAGGAUCACCCAUGUCUCUAUUAUUUAGUU [Mat - Same State NG 1 - JL mod - D94] (Eterna round: R96, puzzle: Same State NG 1)				73.4 nM	38.2 nM	58 nM
AUUUUUAAUGCAGGAUAUGAUUAACAUGAGGAUCACCCAUGUGGUGUUGUGAGUAAGGAGAGUGAUCAGAAGGGCAUAUUUUUU [JMF's solution 80] (Eterna round: R96, puzzle: Same State NG 2)				1170 nM	443 nM	863 nM
AGCUAUCGAAAACGAUAGCAAAGGCAUGUACAUGAGGAUCACCCAUGUCAUGUACAAGCUUUUUGCUCGUCUUAAAA [Zipper 23 - 3] (puzzle: Sensor for hsa-mir-208a)	799 nM	15.9 nM	983 nM			
GGUUUAGUCAAGUGCCGUUGCACUUGAAAACAUGAGGAUCACCCAUGUUUGGGACAAGCUUUGCUCCUCGUCUUUCC [Tiatmaraen] (puzzle: Sensor for hsa-mir-208a)	477 nM	66.3 nM	591 nM			
GUUAUACAUGAGGAUCACCCAUGUCAAUGUAGUCGAGGAUAUGGGCAGCUAUGAGGCGUACUAGAAGGCGAGGAGU [JL-ss1-3.15 ViennaUCT mod] (puzzle: Same State 1)	90.7 nM	90.5 nM	134 nM			
GACAGGCAAGCUUUUUUCUCGUAGUGUAGACAUGAGGAUCACCCAUGUGCUCGCCCUGGAUCUUUGGAUCGCAGAAA [Laaxeso] (puzzle: Sensor for hsa-mir-208a)	17.7 nM	14.4 nM	16.7 nM			
GAGCCAGUCCGAGGAUAUUCAUAUUAACACAUGAGGAUCACCCAUGUGGGCUCAGAAGAGCCCUGGGAGAAGGCGGACUGGCUC [SS-NG2-LRO16] (Eterna round: R96, puzzle: Same State NG 2)				16.5 nM	232 nM	297 nM
GCAUCACAUGAGGAUCACCCAUGUCUUCGGAGCGGAGGAUAUGGUCACUGUAAACAGUGGCCAGAAGGCUGGAUGC [SS1 - Son of Teenbexe v3] (puzzle: Same State 1)		26 nM				
GAGUGGUGGAGAGGAUAUGCAUUGUUAUUCACUGUAGAAGGUUCUAACAUGAGGAUCACCCAUGUAGGACUAUUCCUGUGUUUU [Parity 58 - Jieux - Same State NG 1] (Eterna round: R96, puzzle: Same State NG 1)					9.4 nM	
GGUGCCAAUAAAGCCUACAUGAGGAUCACCCAUGUAUGUAGGCAGGAUAUCGUUUGCUUUGCAAACGAGAAGGGCUGAGGCACC [JL SSNG3 1.18] (Eterna round: R96, puzzle: Same State NG 3)				16.8 nM	28.6 nM	38.6 nM
GUAGCAUACCGAGGAUAUUCAUAUAAUAUUACAUGAGGAUCACCCAUGUAUAGGCGAAAGCCUUGGGAGAAGGCGGAAUGCUAC [Xeonanis - 20 Mod61] (Eterna round: R96, puzzle: Same State NG 2)				13.2 nM	24.9 nM	28.6 nM
ACGCAGCUGGGCAAGGAUAUCGGUGGUAAAACAUGAGGAUCACCCAUGUCCGAAGCUCGGACUUCCGAGAAGGUGCCCGGCUGCG [Soinraesar Omei Mod 8] (puzzle: Same State 2)	20.1 nM	119 nM	238 nM			
UUGAAGAAUUAAGGAUAUCGAGUCAAGAUGUAAAACAUGAGGAUCACCCAUGUGGGUUGCGGUAUCGAGAAGGUAAAUUACAAG [Mat - Same State NG 2 - JL mod - D52] (Eterna round: R96, puzzle: Same State NG 2)				24.1 nM	16.9 nM	35.4 nM

Sequence	apparent KD of MS2 coat protein [1]	apparent KD of MS2 coat protein [2]	apparent KD of MS2 coat protein [3]	apparent KD of MS2 coat protein (input ligand: FMN 200 uM)	apparent KD of MS2 coat protein [4]	apparent KD of MS2 coat protein (input ligand: none)
UGGUACAUGGGAGGAUAUCCUAUGGUGACAUGAGGAUCACCCAUGUAAUUGGAGCCGAAAGGCAUGGAGAAGGCCCAUGUACCU [JL SSNG1 3.78] (Eterna round: R96, puzzle: Same State NG 2)				40.2 nM	31.4 nM	44.1 nM
GCUACCAUUGAAGCCAACAUGAGGAUCACCCAUGUAUGUUGGUAGGAUAUCGAUUGCUUUGCGAUCGAGAAGGGCUAAGGUAGC [JL SSNG3 1.28] (Eterna round: R96, puzzle: Same State NG 3)				52.6 nM	48 nM	45.1 nM
AAAAAACAUGAGGAUCACCCAUGUAAAAAAAUGGGAGGAUAUACAAAAACAAAAAAAAAAGUAGAAGGCCUGAAAA [same state 9] (Eterna round: R96, puzzle: Same State 1)				59.2 nM	478 nM	520 nM
CGUCCAGCCUGAGCUGGACAAAAGCAUGUACAUGAGGAUCACCCAUGUUCAUGUACAAGCUUUUUGCUCGUCUUAGC [salish99_208a_r3_075] (Eterna round: R96, puzzle: Sensor for hsa-mir-208a)				598 nM	13.8 nM	616 nM
GGUCCGGCCUGAGCUGGACCGAAGCAUGUACAUGAGGAUCACCCAUGUCAUGUACAGGCUUCUUGCUCGUCUUGUUG [JL-shm-2.15 JL Mod] (puzzle: Sensor for hsa-mir-208a)	90.3 nM	16.6 nM	219 nM			
CCAAUGUACAAUUUAGAUCUACAUGAGGAUCACCCAUGUACAGAGGAUAUCAGCUCGUGUAGAGCUGAGAAGGCUGAAUUAAUU [SSNG3/3-A4] (Eterna round: R96, puzzle: Same State NG 3)				117 nM	117 nM	179 nM
UGUUGUAUUACAGGAUAUCUAGUAUUUGUAUUUAGAGAAGGGUAUUCACAUGAGGAUCACCCAUGUAUAUACGAGGAAGUUGUG [JMF's solution 42] (Eterna round: R96, puzzle: Same State NG 1)				53.7 nM	35.4 nM	48.3 nM
AAAAGAAGAAGUAAGGAUAUUCAAAAGAAAACAUGAGGAUCACCCAUGUACCAAAAGAAAGAAAAGAAGAAGGUACACAAGAAAA [Same State 2 #3] (puzzle: Same State 2)	24.7 nM	23.2 nM	22.8 nM			
GUAUAACAUGAGGAUCACCCAUGUCAACAAAGUCGAGGAUAUGGGCAUAUAAUAUAUGAACCAGAAGGCGAAUAUG [Mat - Same State 1 - Mod of UCT - D36] (puzzle: Same State 1)	34.2 nM	37.9 nM	56.7 nM			
UAUUUAAUCGUAGGAUAUAGAGUGAAAUUUGUACUAGAAGGACGUAACAUGAGGAUCACCCAUGUGGUAAGUGGGACAUAGUAU [JR_SSNG1_Sub037] (Eterna round: R96, puzzle: Same State NG 1)				44.1 nM	27 nM	39.7 nM
GCGUUUAACGUAGGAUAUCGAGCUACAUGAGGAUCACCCAUGUCUUUGUAAAGUUUUUUUAAUUCCGAGAAGGACGUAUUGCAU [JR_SSNG2_Sub073] (Eterna round: R96, puzzle: Same State NG 2)				27.1 nM	27.2 nM	35.9 nM
CGUAGGCCUCUCAACAUGAGGAUCACCCAUGUACGUGAAACGUAGGAUAUCACACAACUAAUGUGUGAGAAGGGCGCGCCGGAG [Eternabot solution 25] (Eterna round: R96, puzzle: Same State NG 3)					91.4 nM	
UUAAAACAUGAGGAUCACCCAUGUAAUAAUAUGGGAGGAUAUCAGAUUUAAUUUAAUUUAUGAGAAGGCCUAAAUU [Mat - Same State 1 - Mod of Eli - D61] (puzzle: Same State 1)	58.7 nM	163 nM	512 nM			
CCGGAUAAUGGAGGAUAUGGAGCCUUAUUGGCUCCAGAAGGCUAACAUGAGGAUCACCCAUGUAGUCCGGCGGUCAAUAGACCG [Eli NG1ss - 67] (Eterna round: R96, puzzle: Same State NG 1)				10.9 nM	11.5 nM	21.6 nM
GUUACAUGAGGAUCACCCAUGUAUGUGUGGGAGUAAGUGUCUUAGGAUAUCUAUGAGUUAAUUUAAGAGAAGGAAGAUUGUUGU [JMF's solution 74] (Eterna round: R96, puzzle: Same State NG 3)				97.2 nM	63.4 nM	77.5 nM
